Drawing on patent US20260000597A1 (priority 2018, published 2026), this text covers OD for 87 substances.

The target of the experiment is AchR (Homo sapiens, UniProt P02708). As to the kind of experiment: ELISA of screened peptide phages on AchR versus streptavidin (OD450). It counts as binding. The settings on record: absorbance at 450 nm. An outline of the steps:
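Phage supernatants from 4th–5th round plaques, in 2% BSA, applied 1 h at 30 °C to wells coated with 5 μg/ml AchR or streptavidin. Bound phage detected with HRP anti-M13 and TMB at OD450; value given as AchR/streptavidin signal ratio.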

Where [1] appears, read: ELISA of selected 11-mer (L2) peptide phages on AchR, Spep-2 positive control.
[2] abbreviates: ELISA of selected 14-mer (L3) peptide phages on AchR, Spep-2 positive control.
Setting [3] is: phage ELISA, 5 μg/ml AchR, 4th and 5th round biopanning phages.

Sequence of AchR (P02708 21-457): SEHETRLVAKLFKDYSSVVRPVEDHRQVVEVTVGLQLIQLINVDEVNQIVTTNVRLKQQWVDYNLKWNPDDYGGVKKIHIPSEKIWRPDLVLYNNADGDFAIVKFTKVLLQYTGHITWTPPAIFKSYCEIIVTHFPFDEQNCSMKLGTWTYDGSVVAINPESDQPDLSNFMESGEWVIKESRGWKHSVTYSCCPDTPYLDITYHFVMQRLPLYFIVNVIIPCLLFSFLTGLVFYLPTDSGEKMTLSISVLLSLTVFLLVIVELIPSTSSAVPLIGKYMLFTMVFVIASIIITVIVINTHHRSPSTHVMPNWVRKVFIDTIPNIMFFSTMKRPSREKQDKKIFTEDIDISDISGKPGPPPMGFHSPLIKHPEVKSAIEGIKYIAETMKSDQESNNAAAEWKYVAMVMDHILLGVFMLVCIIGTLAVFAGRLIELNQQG

Under setting [1], “L2-132 (LFTRIKRLVCK; AchR binding peptide) [Peptide L2-132]” came in with an OD of 0.515. “L3-69 (CVNRVKKSDSKGTW; AchR binding peptide) [Peptide L3-69]” registered an OD under setting [2] of 0.733. “L2-25 (RLERPRRELTK; AchR binding peptide) [Peptide L2-25]”: the OD under setting [1] was 0.842. Under setting [2], “L3-161 (MAAKWKKDGMKSHY; AchR binding peptide) [Peptide L3-161]” registered an OD of 0.733. With “GGGRKKRRQRR [Peptide L2-202, reference compound]”, the OD under setting [3] is on record as 0.314. As for “L2-186 (PNWKVRRFGDK; AchR binding peptide) [Peptide L2-186]”, the OD under setting [1] is 0.683. For the substance KFKKSAPR [Peptide L1-136], under setting [3], the OD turned out to be 0.392. The same measure, in the same setting: the result for KDKKMPQR [Peptide L1-185] reads 0.55. For the substance “L3-118 (YGIRDRRPMTKHTQ; AchR binding peptide) [Peptide L3-118]”, the OD under setting [2] turned out to be 0.69. Consider KKRKGSAK [Peptide L1-2], for which, under setting [3], the OD amounted to 0.68. On to “L2-86 (SQWKIRKRLIR; AchR binding peptide) [Peptide L2-86]”, for which the OD under setting [1] is on record as 0.701. Same read-out and setting: with “L2-74 (CIMRVKRMWWK; AchR binding peptide) [Peptide L2-74]” the figure was 0.651.

Substance KWRRAFGR [Peptide L1-87] registered an OD under setting [3] of 0.538. Regarding “L2-128 (SPWRIRRQNIR; AchR binding peptide) [Peptide L2-128]”, the OD under setting [1] is listed as 0.516.

“L2-173 (SWAKARKLVHR; AchR binding peptide) [Peptide L2-173]” showed an OD under setting [1] of 0.705. Still for that read-out and setting: with “L2-54 (HHWRFKREMPR; AchR binding peptide) [Peptide L2-54]” the figure was 0.609. Regarding “L3-84 (HTFKLRKLCQKLFE; AchR binding peptide) [Peptide L3-84]”, under setting [2], the OD is reported as 0.739.

Turning to “L2-94 (NPGKTKRWLQR; AchR binding peptide) [Peptide L2-94]”, the OD under setting [1] came out at 0.642. Turning to KTRKIVMK [Peptide L1-199], the OD under setting [3] was found to be 0.596. “L3-104 (ASVRDRKMGYKSDG; AchR binding peptide) [Peptide L3-104]” gave an OD under setting [2] of 0.57. Same read-out and setting: with “L3-131 (YTPKFRRIFWRIID; AchR binding peptide) [Peptide L3-131]” the figure was 0.655.

The substance RDRKNPVR [Peptide L1-124] displayed an OD under setting [3] of 0.428. “L3-5 (NEDRGKRPHIRVLG; AchR binding peptide) [Peptide L3-5]”: under setting [2], the OD was determined as 0.82. Turning to RPKRNWAK [Peptide L1-96], the OD under setting [3] was 0.494. Regarding RLRRWCVK [Peptide L1-30], the OD under setting [3] turned out to be 0.605.

The substance “L2-131 (MTLKHRRVYIK; AchR binding peptide) [Peptide L2-131]” showed an OD under setting [1] of 0.462. With RNKRMDGK [Peptide L1-157], the OD under setting [3] came out at 0.585.

Substance RVKRFVPK [Peptide L1-112] registered an OD under setting [3] of 0.431.

Under setting [1], “L2-158 (MMTKYKKTCCK; AchR binding peptide) [Peptide L2-158]” showed an OD of 0.73.

With “L2-19 (GWNRAKREESK; AchR binding peptide) [Peptide L2-19]”, the OD under setting [1] is reported as 0.727. On to KHKKLNQR [Peptide L1-7], for which the OD under setting [3] stood at 0.68. Same read-out and setting: the result for RLKRAPGR [Peptide L1-33] reads 0.529. “L2-20 (SWQKCKKAEVR; AchR binding peptide) [Peptide L2-20]” registered an OD under setting [1] of 0.675. Substance “L3-165 (YLVKLRRFWAKIDM; AchR binding peptide) [Peptide L3-165]” yielded an OD under setting [2] of 0.771. Still for that read-out and setting: with “L3-150 (YLSRTKRWLARYVE; AchR binding peptide) [Peptide L3-150]” the figure was 0.518. Still for that read-out and setting: with “L3-152 (VVIKCRKWTHKMDH; AchR binding peptide) [Peptide L3-152]” the figure was 0.818.

As to “L2-37 (TLWKVRKAYSR; AchR binding peptide) [Peptide L2-37]”, under setting [1], the OD is listed as 0.66. The substance KQKRQWAR [Peptide L1-191] displayed an OD under setting [3] of 0.649. The same measure, in the same setting: with KSKRHHEK [Peptide L1-69] the figure was 0.474. Consider “L3-42 (ETNRTRKQCYKTTF; AchR binding peptide) [Peptide L3-42]”, for which the OD under setting [2] stood at 0.71.

In turn, RSRRGIGK [Peptide L1-192] came in with an OD under setting [3] of 0.581. On the same count and under the same terms, with KFRRQSTR [Peptide L1-139] the figure was 0.456. With “L2-12 (AYAKARRWGQK; AchR binding peptide) [Peptide L2-12]”, the OD under setting [1] was determined as 0.83. The substance RAKKIMFR [Peptide L1-177] came in with an OD under setting [3] of 0.484. In turn, “L2-138 (IMERQRKSQHR; AchR binding peptide) [Peptide L2-138]” had an OD under setting [1] of 0.509. On the same count and under the same terms, the result for “L2-105 (IEMKPRKFGVK; AchR binding peptide) [Peptide L2-105]” reads 0.488. For “L3-166 (EYVKAKRTPWKYVV; AchR binding peptide) [Peptide L3-166]”, the OD under setting [2] was 0.629. On the same count and under the same terms, the result for “L3-94 (PVLKLRKGRVRAQP; AchR binding peptide) [Peptide L3-94]” reads 0.61. KWKRNCTK [Peptide L1-65]: the OD under setting [3] is given as 0.585. Under setting [2], “L3-85 (QLVKLRKLARRVSY; AchR binding peptide) [Peptide L3-85]” displayed an OD of 0.735.

As to “L2-127 (YIIRWKRQMTR; AchR binding peptide) [Peptide L2-127]”, the OD under setting [1] was 0.569. With “L3-100 (LEERPKKHCAKNHC; AchR binding peptide) [Peptide L3-100]”, the OD under setting [2] amounted to 0.572.

“L2-88 (NAMRTKRMSFK; AchR binding peptide) [Peptide L2-88]”: the OD under setting [1] worked out at 0.744. Same read-out and setting: with “L2-51 (SLYRQKRHDYK; AchR binding peptide) [Peptide L2-51]” the figure was 0.653. For “L3-54 (FFLRCRRLLGKVQV; AchR binding peptide) [Peptide L3-54]”, the OD under setting [2] came to 0.784.

Take “L3-107 (DLSKVRRGHGKNDI; AchR binding peptide) [Peptide L3-107]”: the OD under setting [2] is listed as 0.658.

“L2-67 (KTGRSKRHRWR; AchR binding peptide) [Peptide L2-67]”: the OD under setting [1] came out at 0.696. For the substance “L3-4 (MPQKLKKLDIRNHN; AchR binding peptide) [Peptide L3-4]”, the OD under setting [2] is on record as 0.905. For the substance “L2-193 (PALRMRRWCQK; AchR binding peptide) [Peptide L2-193]”, the OD under setting [1] is 0.705. KGKRDSNK [Peptide L1-51] gave an OD under setting [3] of 0.66. Turning to “L3-133 (VDSREKKWRQKCQC; AchR binding peptide) [Peptide L3-133]”, the OD under setting [2] worked out at 0.566. Regarding “L2-81 (TMWRQRKMSCK; AchR binding peptide) [Peptide L2-81]”, under setting [1], the OD stood at 0.705. Under setting [3], KYKKQHTK [Peptide L1-41] had an OD of 0.613. Regarding “L3-183 (NMARSRKNECKYIA; AchR binding peptide) [Peptide L3-183]”, under setting [2], the OD amounted to 0.768.

“L2-108 (QQDRPKRDIPK; AchR binding peptide) [Peptide L2-108]”: under setting [1], the OD stood at 0.716. Under setting [1], “L2-180 (DPEKWRKFYDR; AchR binding peptide) [Peptide L2-180]” had an OD of 0.744. Turning to “L2-72 (APHKWRKQEQR; AchR binding peptide) [Peptide L2-72]”, under setting [1], the OD was 0.638. “L3-189 (ELVKHRRLDFRDPM; AchR binding peptide) [Peptide L3-189]” showed an OD under setting [2] of 0.786. On the same count and under the same terms, with “L3-114 (LQNRMRKIYWKTFD; AchR binding peptide) [Peptide L3-114]” the figure was 0.646. “L2-140 (YPQKLRRTALK; AchR binding peptide) [Peptide L2-140]”: the OD under setting [1] is reported as 0.445. “RRRRRRRRRRR [Peptide L2-201, reference compound]”: the OD under setting [3] is reported as 0.307.

Under setting [2], “L3-123 (PGERLKKEDHRASG; AchR binding peptide) [Peptide L3-123]” returned an OD of 0.654.

Take RHKKFIEK [Peptide L1-59]: under setting [3], the OD is on record as 0.479.

In turn, “L2-48 (VSTKIKKEPQR; AchR binding peptide) [Peptide L2-48]” displayed an OD under setting [1] of 0.629. Regarding “L3-21 (NPMKLRKAETKHNV; AchR binding peptide) [Peptide L3-21]”, under setting [2], the OD turned out to be 0.843. Substance “L3-76 (QMGKFKKISLKNTF; AchR binding peptide) [Peptide L3-76]” yielded an OD under setting [2] of 0.701. Under setting [3], RWRRSVIK [Peptide L1-106] registered an OD of 0.417. Take KARRVGTK [Peptide L1-143]: the OD under setting [3] was found to be 0.416. As for KPRKIQGR [Peptide L1-137], the OD under setting [3] was 0.458.

The substance KDKKQWGR [Peptide L1-114] came in with an OD under setting [3] of 0.42. Same read-out and setting: the result for RWKKNINK [Peptide L1-80] reads 0.631. Substance “L3-109 (YITKFRKFLMKDQF; AchR binding peptide) [Peptide L3-109]” showed an OD under setting [2] of 0.613. The same measure, in the same setting: with “L3-91 (CWCRQRKCFHKPWI; AchR binding peptide) [Peptide L3-91]” the figure was 0.749.

In turn, “L2-3 (SPVRWKRLCLR; AchR binding peptide) [Peptide L2-3]” came in with an OD under setting [1] of 0.796. RFRRNFHK [Peptide L1-196] displayed an OD under setting [3] of 0.583. Substance RTKKENVK [Peptide L1-180] showed an OD under setting [3] of 0.618.

In the case of “L3-159 (QIAKLKRDQMKEAW; AchR binding peptide) [Peptide L3-159]”, the OD under setting [2] is given as 0.786.
